According to patent US20200407440A1, “AMATOXIN ANTIBODY-DRUG CONJUGATES AND USES THEREOF” (Magenta Therapeutics, Inc., priority 2019, published 2020):

Tests used:
human CD2 (human) [1] = molecular target: human CD2 (human) (UniProt P06729); assay: cell-based or functional assay
human CD2 (human) [2] = molecular target: human CD2 (human) (UniProt P06729); assay: flow cytometry of primary human T cells at day 5; competition with the staining anti-CD2 clone RPA-2.10 [left panel]

UniProt P06729, sequence (P06729 25-351 limits assumed): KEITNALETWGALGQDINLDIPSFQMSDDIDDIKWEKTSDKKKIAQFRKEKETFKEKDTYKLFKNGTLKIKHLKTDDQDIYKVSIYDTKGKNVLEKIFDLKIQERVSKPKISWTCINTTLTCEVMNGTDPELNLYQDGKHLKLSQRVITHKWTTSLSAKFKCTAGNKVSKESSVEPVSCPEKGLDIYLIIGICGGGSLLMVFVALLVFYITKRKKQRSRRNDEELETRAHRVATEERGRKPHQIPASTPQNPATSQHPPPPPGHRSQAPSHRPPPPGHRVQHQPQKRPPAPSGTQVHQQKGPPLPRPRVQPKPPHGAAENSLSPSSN

Row | Substance | % Efficacy, primary human T cell killing assay (human CD2 (human) [1]) [%] | IC50 (pM), primary human T cell killing assay (5 days, flow cytometry) (human CD2 (human) [1]) [pM] | IC50 (read off the curve) (human CD2 (human) [2]) [nM]
1 | CD2 RPA2.10 D265C/H435A ADC A (antibody) | 85.7 | 54 | 0.1
2 | CD2 RPA naked (antibody) |  |  | 0.08
